Each block holds one substance with its values, some of them ahead of it.
Tests used:
Test in all cases: crystal structure
[1] = molecular target: recombinant C-terminal StrepII-tagged SbtB from Synechocystis sp. PCC 6803 (ScSbtB), wild type (Synechocystis sp. PCC 6803)
[2] = molecular target: recombinant C-terminal StrepII-tagged ScSbtB variant C105A+C110A (Synechocystis sp. PCC 6803)
[3] = molecular target: recombinant C-terminal StrepII-tagged ScSbtB variant Δ104 (R-loop truncated from position 104 on) (Synechocystis sp. PCC 6803)

stoichiometry N [1]: 3
Substance: recombinant C-terminal StrepII-tagged SbtB from Synechocystis sp. PCC 6803 (ScSbtB), wild type (natural protein)

stoichiometry N [2]: 3
Substance: recombinant C-terminal StrepII-tagged ScSbtB variant C105A+C110A (natural protein)

stoichiometry N [3]: 3
Substance: recombinant C-terminal StrepII-tagged ScSbtB variant Δ104 (R-loop truncated from position 104 on) (domain or fragment)
